Test results published in US12099068B2, “Biomarkers for graft-versus-host disease” (Incyte Corporation, priority 2018, dated 2024).

Test system: plasma proteins
Assay: Plasma proteins modulated between baseline and day 28 in responders (CR, VGPR, PR; n = 19), Example 6 (Table 13)
Type: in vivo, human
Settings: plasma protein (OLINK NPX); responders (CR, VGPR, PR; n = 19); itacitinib 200 mg or 300 mg QD with corticosteroids; day 28 vs baseline
Protocol: Due to the limited sample size, steroid-naive (N=10) and steroid-refractory (N=18) patients were combined for further analysis. Broad proteomic analysis of over 1000 proteins was conducted by OLINK Proteomics (Watertown, MA) using a proximity extension assay as described by the manufacturer. Data are presented as normalized protein expression (NPX) in log 2 scale. Statistical differences were evaluated using unpaired and paired t tests, one-way […] (ANOVA), and Pearson Correlation. Significance was conferred when P<0.05.
Longitudinal differences in protein expression were analyzed by evaluating plasma samples from baseline/screening and day 28.

Molecule	Fold Change, Decreased Expression from Baseline to Day 28
TYMP (protein, UniProt P19971 11-482, looked up) Thymidine phosphorylase: APPAPGDFSGEGSQGLPDPSPEPKQLPELIRMKRDGGRLSEADIRGFVAAVVNGSAQGAQIGAMLMAIRLRGMDLEETSVLTQALAQSGQQLEWPEAWRQQLVDKHSTGGVGDKVSLVLAPALAACGCKVPMISGRGLGHTGGTLDKLESIPGFNVIQSPEQMQVLLDQAGCCIVGQSEQLVPADGILYAARDVTATVDSLPLITASILSKKLVEGLSALVVDVKFGGAAVFPNQEQARELAKTLVGVGASLGLRVAAALTAMDKPLGRCVGHALEVEEALLCMDGAGPPDLRDLVTTLGGALLWLSGHAGTQAQGAARVAAALDDGSALGRFERMLAAQGVDPGLARALCSGSPAERRQLLPRAREQEELLAPADGTVELVRALPLALVLHELGAGRSRAGEPLRLGVGAELLVDVGQRLRRGTPWLRVHRDGPALSGPQSRALQEALVLSDRAPFAAPSPFAELVLPPQQ	−1.7313
SNAP29 (protein, UniProt O95721 1-258, looked up) Synaptosomal-associated …: MSAYPKSYNPFDDDGEDEGARPAPWRDARDLPDGPDAPADRQQYLRQEVLRRAEATAASTSRSLALMYESEKVGVASSEELARQRGVLERTEKMVDKMDQDLKISQKHINSIKSVFGGLVNYFKSKPVETPPEQNGTLTSQPNNRLKEAISTSKEQEAKYQASHPNLRKLDDTDPVPRGAGSAMSTDAYPKNPHLRAYHQKIDSNLDELSMGLGRLKDIALGMQTEIEEQDDILDRLTTKVDKLDVNIKSTERKVRQL	−1.6325
TNFRSF11A (protein, UniProt Q9Y6Q6 30-616, looked up) Tumor necrosis factor …: IAPPCTSEKHYEHLGRCCNKCEPGKYMSSKCTTTSDSVCLPCGPDEYLDSWNEEDKCLLHKVCDTGKALVAVVAGNSTTPRRCACTAGYHWSQDCECCRRNTECAPGLGAQHPLQLNKDTVCKPCLAGYFSDAFSSTDKCRPWTNCTFLGKRVEHHGTEKSDAVCSSSLPARKPPNEPHVYLPGLIILLLFASVALVAAIIFGVCYRKKGKALTANLWHWINEACGRLSGDKESSGDSCVSTHTANFGQQGACEGVLLLTLEEKTFPEDMCYPDQGGVCQGTCVGGGPYAQGEDARMLSLVSKTEIEEDSFRQMPTEDEYMDRPSQPTDQLLFLTEPGSKSTPPFSEPLEVGENDSLSQCFTGTQSTVGSESCNCTEPLCRTDWTPMSSENYLQKEVDSGHCPHWAASPSPNWADVCTGCRNPPGEDCEPLVGSPKRGPLPQCAYGMGLPPEEEASRTEARDQPEDGADGRLPSSARAGAGSGSSPGGQSPASGNVTGNSNSTFISSGQVMNFKGDIIVVYVSQTSQEGAAAAAEPMGRPVQEETLARRDSFAGNGPRFPDPCGGPEGLREPEKASRPVQEQGGAKA	−1.3519
gal-8 (protein, UniProt O00214 1-317, looked up) Galectin-8: MMLSLNNLQNIIYNPVIPFVGTIPDQLDPGTLIVIRGHVPSDADRFQVDLQNGSSMKPRADVAFHFNPRFKRAGCIVCNTLINEKWGREEITYDTPFKREKSFEIVIMVLKDKFQVAVNGKHTLLYGHRIGPEKIDTLGIYGKVNIHSIGFSFSSDLQSTQASSLELTEISRENVPKSGTPQLRLPFAARLNTPMGPGRTVVVKGEVNANAKSFNVDLLAGKSKDIALHLNPRLNIKAFVRNSFLQESWGEEERNITSFPFSPGMYFEMIIYCDVREFKVAVNGVHSLEYKHRFKELSSIDTLEINGDIHLLEVRSW	−1.3154
GCNT1 (protein, UniProt Q02742 1-428, looked up) Beta-1,3-galactosyl-O-glycosyl …: MLRTLLRRRLFSYPTKYYFMVLVLSLITFSVLRIHQKPEFVSVRHLELAGENPSSDINCTKVLQGDVNEIQKVKLEILTVKFKKRPRWTPDDYINMTSDCSSFIKRRKYIVEPLSKEEAEFPIAYSIVVHHKIEMLDRLLRAIYMPQNFYCIHVDTKSEDSYLAAVMGIASCFSNVFVASRLESVVYASWSRVQADLNCMKDLYAMSANWKYLINLCGMDFPIKTNLEIVRKLKLLMGENNLETERMPSHKEERWKKRYEVVNGKLTNTGTVKMLPPLETPLFSGSAYFVVSREYVGYVLQNEKIQKLMEWAQDTYSPDEYLWATIQRIPEVPGSLPASHKYDLSDMQAVARFVKWQYFEGDVSKGAPYPPCDGVHVRSVCIFGAGDLNWMLRKHHLFANKFDVDVDLFAIQCLDEHLRHKALETLKH	−1.3034
STK4 (protein, UniProt Q13043 1-487, looked up) Serine/threonine-protein …: METVQLRNPPRRQLKKLDEDSLTKQPEEVFDVLEKLGEGSYGSVYKAIHKETGQIVAIKQVPVESDLQEIIKEISIMQQCDSPHVVKYYGSYFKNTDLWIVMEYCGAGSVSDIIRLRNKTLTEDEIATILQSTLKGLEYLHFMRKIHRDIKAGNILLNTEGHAKLADFGVAGQLTDTMAKRNTVIGTPFWMAPEVIQEIGYNCVADIWSLGITAIEMAEGKPPYADIHPMRAIFMIPTNPPPTFRKPELWSDNFTDFVKQCLVKSPEQRATATQLLQHPFVRSAKGVSILRDLINEAMDVKLKRQESQQREVDQDDEENSEEDEMDSGTMVRAVGDEMGTVRVASTMTDGANTMIEHDDTLPSQLGTMVINAEDEEEEGTMKRRDETMQPAKPSFLEYFEQKEKENQINSFGKSVPGPLKNSSDWKIPQDGDYEFLKSWTVEDLQKRLLALDPMMEQEIEEIRQKYQSKRQPILDAIEAKKRRQQNF	−1.8393
SH2B3 (protein, UniProt Q9UQQ2 1-575, looked up) SH2B adapter protein 3: MNGPALQPSSPSSAPSASPAAAPRGWSEFCELHAVAAARELARQYWLFAREHPQHAPLRAELVSLQFTDLFQRYFCREVRDGRAPGRDYRDTGRGPPAKAEASPEPGPGPAAPGLPKARSSEELAPPRPPGPCSFQHFRRSLRHIFRRRSAGELPAAHTAAAPGTPGEAAETPARPGLAKKFLPWSLAREPPPEALKEAVLRYSLADEASMDSGARWQRGRLALRRAPGPDGPDRVLELFDPPKSSRPKLQAACSSIQEVRWCTRLEMPDNLYTFVLKVKDRTDIIFEVGDEQQLNSWMAELSECTGRGLESTEAEMHIPSALEPSTSSSPRGSTDSLNQGASPGGLLDPACQKTDHFLSCYPWFHGPISRVKAAQLVQLQGPDAHGVFLVRQSETRRGEYVLTFNFQGIAKHLRLSLTERGQCRVQHLHFPSVVDMLHHFQRSPIPLECGAACDVRLSSYVVVVSQPPGSCNTVLFPFSLPHWDSESLPHWGSELGLPHLSSSGCPRGLSPEGLPGRSSPPEQIFHLVPSPEELANSLQHLEHEPVNRARDSDYEMDSSSRSHLRAIDNQYTPL	−1.7273
CLEC4D (protein, UniProt Q8WXI8 1-215, looked up) C-type lectin domain family 4 …: MGLEKPQSKLEGGMHPQLIPSVIAVVFILLLSVCFIASCLVTHHNFSRCKRGTGVHKLEHHAKLKCIKEKSELKSAEGSTWNCCPIDWRAFQSNCYFPLTDNKTWAESERNCSGMGAHLMTISTEAEQNFIIQFLDRRLSYFLGLRDENAKGQWRWVDQTPFNPRRVFWHKNEPDNSQGENCVVLVYNQDKWAWNDVPCNFEASRICKIPGTTLN	−1.7084
SIGLEC6 (protein, UniProt O43699 27-453, looked up) Sialic acid-binding Ig-like …: QERRFQLEGPESLTVQEGLCVLVPCRLPTTLPASYYGYGYWFLEGADVPVATNDPDEEVQEETRGRFHLLWDPRRKNCSLSIRDARRRDNAAYFFRLKSKWMKYGYTSSKLSVRVMALTHRPNISIPGTLESGHPSNLTCSVPWVCEQGTPPIFSWMSAAPTSLGPRTTQSSVLTITPRPQDHSTNLTCQVTFPGAGVTMERTIQLNVSYAPQKVAISIFQGNSAAFKILQNTSSLPVLEGQALRLLCDADGNPPAHLSWFQGFPALNATPISNTGVLELPQVGSAEEGDFTCRAQHPLGSLQISLSLFVHWKPEGRAGGVLGAVWGASITTLVFLCVCFIFRVKTRRKKAAQPVQNTDDVNPVMVSGSRGHQHQFQTGIVSDHPAEAGPISEDEQELHYAVLHFHKVQPQEPKVTDTEYSEIKIHK	−1.9024
